Data from patent US20260167699A1 (Chugai, published 2026).
Numbering of substitutions follows the chain as printed.

B1: GpH7-A5/GpH7-B3 variant S337_16H/GpL16-k0 (antibody, human IgG1, kappa)
heavy 1: not shown
heavy 2: not shown
light: DIVMTQSPLSLPVTPGEPASISCQASESLVHSNRNTYLHWYLQKPGQSPQLLIYKVSNRFSGVPDRFSGSGSGTDFTLKISRVEAEDVGVYYCSQNTHVPPTFGQGTKVEIERTVAAPSVFIFPPSDEQLKSGTASVVCLLNNFYPREAKVQWKVDNALQSGNSQESVTEQDSKDSTYSLSSTLTLSKADYEKHKVYACEVTHQGLSSPVTKSFNRGEC
notes: heterodimerized anti-glypican 3 IgG1; mutation in one H chain only; also called He Ab
B2: GpH7-A5/GpH7-B3 variant S337_20W/GpL16-k0 (antibody, human IgG1, kappa)
heavy 1: not shown
heavy 2: not shown
light: B1 light
notes: as for B1
B3: GpH7-A5/GpH7-B3 variant S337_19Q/GpL16-k0 (antibody, human IgG1, kappa)
heavy 1: not shown
heavy 2: not shown
light: B1 light
notes: as for B1
B4: GpH7-G1d/GpL16-k0 (antibody, human IgG1, kappa)
heavy: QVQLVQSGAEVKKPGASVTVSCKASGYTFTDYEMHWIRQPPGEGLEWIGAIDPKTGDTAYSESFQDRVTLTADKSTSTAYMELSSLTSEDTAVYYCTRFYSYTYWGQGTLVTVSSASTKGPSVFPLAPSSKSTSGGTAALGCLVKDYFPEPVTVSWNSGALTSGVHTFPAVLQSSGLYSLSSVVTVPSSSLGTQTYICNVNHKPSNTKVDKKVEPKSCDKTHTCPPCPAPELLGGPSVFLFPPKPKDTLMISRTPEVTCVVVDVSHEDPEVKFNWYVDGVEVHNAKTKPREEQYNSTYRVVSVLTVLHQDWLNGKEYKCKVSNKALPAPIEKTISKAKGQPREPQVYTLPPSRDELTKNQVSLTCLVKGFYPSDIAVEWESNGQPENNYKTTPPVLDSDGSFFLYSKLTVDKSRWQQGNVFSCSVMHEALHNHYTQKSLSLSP
light: B1 light
notes: anti-glypican 3 IgG1, C-terminal Gly and Lys of the H chain deleted; also called naturally occurring IgG1
B5: GpH7-A5/GpH7-B3 variant S337_08L/GpL16-k0 (antibody, human IgG1, kappa)
heavy 1: not shown
heavy 2: not shown
light: B1 light
notes: heterodimerized anti-glypican 3 IgG1, only the GpH7-B3 chain mutated; also called He Ab
B6: GpH7-A5/GpH7-B3 variant S337_07I/GpL16-k0 (antibody, human IgG1, kappa)
heavy 1: not shown
heavy 2: not shown
light: B1 light
notes: as for B5
B7: GpH7-A5/GpH7-B3 variant S337_16H/GpL16-k0 (antibody, human IgG1, kappa)
heavy 1: not shown
heavy 2: not shown
light: B1 light
notes: as for B5
B8: GpH7-A5/GpH7-B3 variant S337_14T/GpL16-k0 (antibody, human IgG1, kappa)
heavy 1: not shown
heavy 2: not shown
light: B1 light
notes: as for B5
B9: GpH7-A5/GpH7-B3 variant S337_19Q/GpL16-k0 (antibody, human IgG1, kappa)
heavy 1: not shown
heavy 2: not shown
light: B1 light
notes: as for B5
B10: GpH7-A5/GpH7-B3 variant S337_15Y/GpL16-k0 (antibody, human IgG1, kappa)
heavy 1: not shown
heavy 2: not shown
light: B1 light
notes: as for B5
B11: GpH7-A5/GpH7-B3 variant S337_11K/GpL16-k0 (antibody, human IgG1, kappa)
heavy 1: not shown
heavy 2: not shown
light: B1 light
notes: as for B5
B12: GpH7-A5/GpH7-B3 variant S337_20W/GpL16-k0 (antibody, human IgG1, kappa)
heavy 1: not shown
heavy 2: not shown
light: B1 light
notes: as for B5

These binders were tested against T1, FcγRIIIa extracellular domain with C-terminal His tag (allotype not given) (human, UniProt P08637 17-208) (assay: SPR (Biacore), captured antibody, FcγRIIIa analyte; binding relative to GpH7-A5/GpH7-B3/GpL16-k0 = 100).
T1 construct: extracellular domain; also called 3a
T1 sequence (P08637 other isoform, or with tags, fused parts or gaps): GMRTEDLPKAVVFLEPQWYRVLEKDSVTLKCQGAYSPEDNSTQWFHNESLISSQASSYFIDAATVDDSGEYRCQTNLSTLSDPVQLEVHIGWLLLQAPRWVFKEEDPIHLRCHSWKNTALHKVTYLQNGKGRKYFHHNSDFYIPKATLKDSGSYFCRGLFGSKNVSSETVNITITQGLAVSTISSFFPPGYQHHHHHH

Going from B1 to B2, the “He/Con 3a” value falls from 100% to 93.8%.

B3 was tested, and the “He/Con 3a” value was 91.2%.

Each binder was assayed against T1, FcγRIIIa extracellular domain with … (assay: SPR (Biacore), captured antibody, FcγRIIIa analyte, 1:1 Langmuir fit).
Experimental: (§1) The antibody of interest was analyzed for its interaction with FcγR using a BiaCore™ T100, BiaCore™ A100, or BiaCore™ 4000 surface plasmon resonance system (GE Healthcare Japan Corp.). The running buffer used was HBS-EP+ (GE Healthcare Japan Corp.). The assay temperature was set to 25° C. The sensor chips used were: a chip prepared by immobilizing antigenic peptides onto Series S Sensor Chip CM5 (GE Healthcare Japan Corp.) by the amine coupling method; a chip prepared by immobilizing antigenic peptides biotinylated in advance onto Series S Sensor Chip SA (certified) (GE Healthcare Japan Corp.) through their interaction; a chip prepared by immobilizing protein L (ACTIGEN, BioVision, Inc.) onto Series S Sensor Chip CM5 (GE Healthcare Japan Corp.); and a chip prepared by immobilizing protein A/G (Thermo Fisher Scientific K.K.) onto Series S Sensor Chip CM5 (GE Healthcare Japan Corp.). The antibody of interest was captured onto any of these chips and allowed to interact with FcγR diluted with a running buffer. The antibody captured on the chip was washed off through the reaction of 10 mM glycine-HCl (pH 1.5) to regenerate the chip, which was repetitively used.

Binder B4 has a Kd of 1.2 µM.

What follows are binders tested against T1, FcγRIIIa extracellular domain with … (assay: SPR; KD of GpH7-G1d/GpL16-k0 for FcγRIIIa divided by KD of this antibody).
Experimental: as §1

B4 was tested, and the “KD ratio1” value was 1 fold.

What follows are binders tested against T2, FcγRIIb (human, UniProt P31994 43-217) (assay: SPR (Biacore); He Ab binding / HeCon Ab (GpH7-A5/GpH7-B3/GpL16-k0) binding x100;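 also: antibody captured on the sensor chip, soluble FcγR flowed over it in HBS-EP+ running buffer, 25 °C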).
T2 construct: extracellular domain; also called 2b
T2 sequence: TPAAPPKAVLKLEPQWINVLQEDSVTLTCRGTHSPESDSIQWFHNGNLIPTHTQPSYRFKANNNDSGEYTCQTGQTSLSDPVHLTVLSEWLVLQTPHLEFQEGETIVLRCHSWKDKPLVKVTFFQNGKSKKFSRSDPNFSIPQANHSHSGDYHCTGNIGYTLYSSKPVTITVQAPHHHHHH
Experimental: as §1

Compared with B5, B6 is higher in “He/Con 2b” value: 109% for the first, 113% for the second.

B7 and B8 are the same in “He/Con 2b” value: 114% for the first, 114% for the second.

B9 and B10 are the same in “He/Con 2b” value: 109% for the first, 109% for the second.

Going from B11 to B12, the “He/Con 2b” value rises from 103% to 119%.

Each binder was assayed against T3, FcγRIIa(R) (human, UniProt P12318 34-217) in the same assay as above.
T3 construct: extracellular domain; also called 2aR
T3 sequence: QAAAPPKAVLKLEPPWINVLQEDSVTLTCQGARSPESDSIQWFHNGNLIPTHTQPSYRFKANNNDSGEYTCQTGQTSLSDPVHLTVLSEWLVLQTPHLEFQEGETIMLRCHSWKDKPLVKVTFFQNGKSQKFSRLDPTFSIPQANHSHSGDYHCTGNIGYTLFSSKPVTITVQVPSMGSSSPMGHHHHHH
Experimental: as §1

Going from B5 to B6, the “He/Con 2aR” value rises from 109% to 111%.

First: B7
Second: B8
The “He/Con 2aR” value of the first is lower: 111% for the first, 112% for the second.

Compared with B9, B10 is lower in “He/Con 2aR” value: 108% for the first, 107% for the second.

Compared with B11, B12 is higher in “He/Con 2aR” value: 105% for the first, 112% for the second.

Each binder was assayed against T4, FcγRIIa(H) (human, UniProt P12318 34-217) in the same assay as above.
T4 construct: extracellular domain; also called 2aH
T4 sequence: T3 sequence with R134H
Experimental: as §1

Compared with B5, B6 is higher in “He/Con 2aH” value: 106% for the first, 107% for the second.

Compared with B7, B8 is higher in “He/Con 2aH” value: 108% for the first, 110% for the second.

Going from B9 to B10, the “He/Con 2aH” value rises from 104% to 106%.

Going from B11 to B12, the “He/Con 2aH” value rises from 102% to 108%.

What follows are binders tested against T5, FcγRIa (human, UniProt P12314 16-292) in the same assay as above.
T5 construct: extracellular domain; also called 1a
T5 sequence (P12314 other isoform, or with tags, fused parts or gaps): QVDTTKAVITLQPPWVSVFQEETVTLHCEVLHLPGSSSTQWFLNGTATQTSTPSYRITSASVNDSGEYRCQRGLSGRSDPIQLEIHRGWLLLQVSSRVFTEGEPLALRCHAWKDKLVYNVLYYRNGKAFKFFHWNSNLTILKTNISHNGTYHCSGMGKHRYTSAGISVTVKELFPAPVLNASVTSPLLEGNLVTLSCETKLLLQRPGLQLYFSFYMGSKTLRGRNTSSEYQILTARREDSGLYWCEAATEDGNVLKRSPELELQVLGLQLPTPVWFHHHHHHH
Experimental: as §1

B5 and B6 are the same in “He/Con 1a” value: 102% for the first, 102% for the second.

Going from B7 to B8, the “He/Con 1a” value rises from 101% to 102%.

B9 and B10 are the same in “He/Con 1a” value: 101% for the first, 101% for the second.

Going from B11 to B12, the “He/Con 1a” value rises from 101% to 102%.
